Measurements from patent US20050064507.

How the values were obtained:
[1] = test system: T1, AF15q14 peptide GFLNEPLSSKSQRRKSLKLK (SEQ ID NO:132)
T1 sequence: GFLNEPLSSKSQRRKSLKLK

[2] = test system: T2, AKAP12 peptide AGWRKKTSFRKPKED (SEQ ID NO:99)
T2 sequence: AGWRKKTSFRKPKED

[3] = test system: T3, ANK1 peptide AQIVKRASLKRGKQ (SEQ ID NO:90)
T3 sequence: AQIVKRASLKRGKQ

[4] = test system: T4, EBNA1BP2 peptide KRPGKKGSNKRPGKR (SEQ ID NO:112)
T4 sequence: KRPGKKGSNKRPGKR

[5] = test system: T5, ERN1 peptide ISDFGLAKKLAVGRHSFSRR (SEQ ID NO:145)
T5 sequence: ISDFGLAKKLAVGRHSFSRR

[6] = test system: T6, FLJ20574 peptide GENVLKKSMKSRVKG (SEQ ID NO:113)
T6 sequence: GENVLKKSMKSRVKG

[7] = test system: T7, HERG peptide TELEGGFSRQRKRKLSFRRR (SEQ ID NO:140)
T7 sequence: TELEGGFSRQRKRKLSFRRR

[8] = test system: T8, NF1 peptide AGSFKRNSIKKIV (SEQ ID NO:102)
T8 sequence: AGSFKRNSIKKIV

[9] = test system: T9, NF1 peptide SQVQKQRSAGSFKRNSIKKI (SEQ ID NO:127)
T9 sequence: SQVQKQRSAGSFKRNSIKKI

[10] = test system: T10, PARIS1 peptide EYLERRASRRRAV (SEQ ID NO:89)
T10 sequence: EYLERRASRRRAV

[11] = test system: T11, PARIS1 peptide RELEQLKAEYLERRASRRRA (SEQ ID NO:148)
T11 sequence: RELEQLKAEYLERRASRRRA

[12] = test system: T12, PKD1 peptide RVVQSVKHTKRKSSTVMK (SEQ ID NO:149)
T12 sequence: RVVQSVKHTKRKSSTVMK

[13] = test system: T13, PLD1 peptide KYKAFIRIPIPTRRHTFRRQ (SEQ ID NO:161)
T13 sequence: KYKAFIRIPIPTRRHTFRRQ

[14] = test system: T14, PRKCA peptide RFARKGSLRQKNV (SEQ ID NO:85)
T14 sequence: RFARKGSLRQKNV

[15] = test system: T15, PSCD2 peptide AARKKRISVKKKQEQ (SEQ ID NO:93)
T15 sequence: AARKKRISVKKKQEQ

[16] = test system: T16, SDPR peptide EKIKRSSLKKVDSLKK (SEQ ID NO:104)
T16 sequence: EKIKRSSLKKVDSLKK

[17] = test system: T17, kinesin 3C peptide LEKRGMLGKRPRRKSSRRKK (SEQ ID NO:133)
T17 sequence: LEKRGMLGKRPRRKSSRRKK

[18] = test system: T18, p47phox peptide QAQRQIKRGAPPRRSSIRNA (SEQ ID NO:146)
T18 sequence: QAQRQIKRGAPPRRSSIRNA

[19] = test system: T19, peptide AGWRKKTSFRKPKED (SEQ ID NO:17)
T19 sequence: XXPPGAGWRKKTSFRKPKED

[20] = test system: T20, peptide ARIIGEKSFRRSVVG (SEQ ID NO:47)
T20 sequence: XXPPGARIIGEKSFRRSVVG

[21] = test system: T21, peptide AVNSRRRAGQKKK (SEQ ID NO:48)
T21 sequence: XXPPGAVNSRRRAGQKKK

[22] = test system: T22, peptide AYIERMNSIHRDLRA (SEQ ID NO:37)
T22 sequence: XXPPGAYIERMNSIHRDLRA

[23] = test system: T23, peptide DDMEHKTLKITDFG (SEQ ID NO:55)
T23 sequence: XXPPGDDMEHKTLKITDFG

[24] = test system: T24, peptide DGQKRKKSLRKKLD (SEQ ID NO:16)
T24 sequence: XXPPGDGQKRKKSLRKKLD

[25] = test system: T25, peptide EILSRRPSYRKILND (SEQ ID NO:25)
T25 sequence: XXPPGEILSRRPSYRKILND

[26] = test system: T26, peptide ENLRRVATDRRHLGH (SEQ ID NO:50)
T26 sequence: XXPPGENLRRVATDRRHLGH

[27] = test system: T27, peptide GAPPRRSSIRNAH (SEQ ID NO:20)
T27 sequence: XXPPGGAPPRRSSIRNAH

[28] = test system: T28, peptide HKHSPEKRGSERKEG (SEQ ID NO:52)
T28 sequence: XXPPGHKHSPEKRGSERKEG

[29] = test system: T29, peptide KEVVRTDSLKGRRGR (SEQ ID NO:30)
T29 sequence: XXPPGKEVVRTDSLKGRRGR

[30] = test system: T30, peptide KFARKSTRRSIRLPE (SEQ ID NO:4)
T30 sequence: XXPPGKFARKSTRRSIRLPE

[31] = test system: T31, peptide KKKFRTPSFLKKSKK (SEQ ID NO:11)
T31 sequence: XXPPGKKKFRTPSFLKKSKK

[32] = test system: T32, peptide LALTARESSVRSGGAG (SEQ ID NO:69)
T32 sequence: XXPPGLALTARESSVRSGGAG

[33] = test system: T33, peptide LRRKHLGTLNFGGIR (SEQ ID NO:60)
T33 sequence: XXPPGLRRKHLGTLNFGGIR

[34] = test system: T34, peptide NMEAKKLSKDRMKKY (SEQ ID NO:40)
T34 sequence: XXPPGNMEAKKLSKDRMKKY

[35] = test system: T35, peptide QKRHARVTVKYDRRE (SEQ ID NO:23)
T35 sequence: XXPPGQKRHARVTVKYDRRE

[36] = test system: T36, peptide QQKIRKYTMRRLLQE (SEQ ID NO:33)
T36 sequence: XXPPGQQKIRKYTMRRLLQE

[37] = test system: T37, peptide RGFLRSASLGRRASFHLE (SEQ ID NO:15)
T37 sequence: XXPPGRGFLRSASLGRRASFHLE

[38] = test system: T38, peptide RQRKRKLSFRRRTDKD (SEQ ID NO:5)
T38 sequence: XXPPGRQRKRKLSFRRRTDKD

[39] = test system: T39, plectin peptide PLKEKKRERKTSSKSSVRKR (SEQ ID NO:125)
T39 sequence: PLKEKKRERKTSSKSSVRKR

[40] = test system: T40, slp4 peptide TYLLPDKSRQGKRKTSIKRD (SEQ ID NO:153)
T40 sequence: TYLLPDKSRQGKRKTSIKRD

[41] = test system: T41, splicing factor, arginine/serine-rich 4 peptide RSRSRSRSKSKDKRKSRKRS (SEQ ID NO:134)
T41 sequence: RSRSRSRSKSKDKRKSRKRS

Substance: PKC-delta
- in vitro phosphorylation, 1 uM peptide (% of best substrate) [1]: 41
- in vitro phosphorylation, 10 uM peptide (% of best substrate) [1]: 47
- in vitro phosphorylation (% of best substrate) [2]: 17
- in vitro phosphorylation (% of best substrate) [3]: 32
- in vitro phosphorylation (% of best substrate) [4]: 8
- in vitro phosphorylation, 1 uM peptide (% of best substrate) [5]: 34
- in vitro phosphorylation, 10 uM peptide (% of best substrate) [5]: 23
- in vitro phosphorylation (% of best substrate) [6]: 4
- in vitro phosphorylation, 1 uM peptide (% of best substrate) [7]: 44
- in vitro phosphorylation, 10 uM peptide (% of best substrate) [7]: 49
- in vitro phosphorylation (% of best substrate) [8]: 14
- in vitro phosphorylation, 1 uM peptide (% of best substrate) [9]: 52
- in vitro phosphorylation, 10 uM peptide (% of best substrate) [9]: 33
- in vitro phosphorylation (% of best substrate) [10]: 20
- in vitro phosphorylation, 1 uM peptide (% of best substrate) [11]: 27
- in vitro phosphorylation, 10 uM peptide (% of best substrate) [11]: 14
- in vitro phosphorylation, 1 uM peptide (% of best substrate) [12]: 20
- in vitro phosphorylation, 10 uM peptide (% of best substrate) [12]: 17
- in vitro phosphorylation, 1 uM peptide (% of best substrate) [13]: 22
- in vitro phosphorylation, 10 uM peptide (% of best substrate) [13]: 14
- in vitro phosphorylation (% of best substrate) [14]: 34
- in vitro phosphorylation (% of best substrate) [15]: 35
- in vitro phosphorylation (% of best substrate) [16]: 10
- in vitro phosphorylation, 1 uM peptide (% of best substrate) [17]: 46
- in vitro phosphorylation, 10 uM peptide (% of best substrate) [17]: 52
- in vitro phosphorylation, 1 uM peptide (% of best substrate) [18]: 33
- in vitro phosphorylation, 10 uM peptide (% of best substrate) [18]: 14
- in vitro phosphorylation (% of best substrate) [19]: 17
- in vitro phosphorylation (% of best substrate) [20]: 2
- in vitro phosphorylation (% of best substrate) [21]: 2
- in vitro phosphorylation (% of best substrate) [22]: 3
- in vitro phosphorylation (% of best substrate) [23]: 2
- in vitro phosphorylation (% of best substrate) [24]: 17
- in vitro phosphorylation (% of best substrate) [25]: 9
- in vitro phosphorylation (% of best substrate) [26]: 2
- in vitro phosphorylation (% of best substrate) [27]: 13
- in vitro phosphorylation (% of best substrate) [28]: 2
- in vitro phosphorylation (% of best substrate) [29]: 7
- in vitro phosphorylation (% of best substrate) [30]: 52
- in vitro phosphorylation (% of best substrate) [31]: 25
- in vitro phosphorylation (% of best substrate) [32]: 1
- in vitro phosphorylation (% of best substrate) [33]: 1
- in vitro phosphorylation (% of best substrate) [34]: 3
- in vitro phosphorylation (% of best substrate) [35]: 10
- in vitro phosphorylation (% of best substrate) [36]: > 5
- in vitro phosphorylation (% of best substrate) [37]: 18
- in vitro phosphorylation (% of best substrate) [38]: 42
- in vitro phosphorylation, 1 uM peptide (% of best substrate) [39]: 46
- in vitro phosphorylation, 10 uM peptide (% of best substrate) [39]: 36
- in vitro phosphorylation, 1 uM peptide (% of best substrate) [40]: 32
- in vitro phosphorylation, 10 uM peptide (% of best substrate) [40]: 26
- in vitro phosphorylation, 1 uM peptide (% of best substrate) [41]: 44
- in vitro phosphorylation, 10 uM peptide (% of best substrate) [41]: 16
